Positions count from the first letter of the chain named.

The chains are these.
T1: mouse iRhom2 (Mus musculus, UniProt Q80WQ6)
T1 construct: MEF-DKO-miR2-FL-WT-T7 cells stably expressing mouse iRhom2 full length wild type; expressed in transfected cells; host or cells: immortalized iRhom1/2-/- DKO mouse embryonic fibroblasts, pMSCV retroviral infection
T1 sequence (Q80WQ6 1-827): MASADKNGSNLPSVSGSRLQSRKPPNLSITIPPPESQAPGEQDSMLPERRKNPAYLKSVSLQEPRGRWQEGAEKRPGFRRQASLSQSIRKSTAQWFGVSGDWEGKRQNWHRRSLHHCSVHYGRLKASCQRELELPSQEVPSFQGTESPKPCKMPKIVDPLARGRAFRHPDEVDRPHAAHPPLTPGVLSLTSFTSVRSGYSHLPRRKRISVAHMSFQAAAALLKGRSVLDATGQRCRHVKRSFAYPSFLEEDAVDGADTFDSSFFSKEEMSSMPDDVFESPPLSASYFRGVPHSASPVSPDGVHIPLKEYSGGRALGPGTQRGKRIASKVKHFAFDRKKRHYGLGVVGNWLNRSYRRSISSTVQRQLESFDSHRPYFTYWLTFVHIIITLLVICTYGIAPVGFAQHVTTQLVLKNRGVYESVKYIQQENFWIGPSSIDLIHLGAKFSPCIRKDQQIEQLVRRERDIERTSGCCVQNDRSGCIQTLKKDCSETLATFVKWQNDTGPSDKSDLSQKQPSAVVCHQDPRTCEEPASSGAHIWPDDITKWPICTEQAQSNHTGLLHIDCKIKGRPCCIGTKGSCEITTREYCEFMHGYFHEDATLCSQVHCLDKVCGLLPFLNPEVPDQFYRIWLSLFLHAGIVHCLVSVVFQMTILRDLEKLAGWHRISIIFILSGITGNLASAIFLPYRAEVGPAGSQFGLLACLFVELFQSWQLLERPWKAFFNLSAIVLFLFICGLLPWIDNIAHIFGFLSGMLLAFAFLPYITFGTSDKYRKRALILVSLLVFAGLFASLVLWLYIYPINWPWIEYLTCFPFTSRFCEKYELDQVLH

B1: 16-B-03: humanized antibody binding human iRhom2; HCVD SEQ ID NO 1, LCVD SEQ ID NO 5 (antibody, V domains shown)
VH: QVTLRESGPALVKPTQTLTLTCTFSGFSLSTFALGVGWIRQPPGKALEWLAHIWWDDDKYYNPALKSRLTISKDTSKNQVVLTITNMDPVDTATYYCARITTYYYGMDYWGQGTLVTVSS
VL: EIVMTQSPDFQSVTPKEKVTITCRASQSIGNHLHWYQQKPDASPKLLIKYASQSISGVPSRFSGSGSGTDFTLTINSLEAEDAATYFCQQSYQWPLTFGQGTKLEIK
modifications: antibody sequences
B2: 16-B-07: humanized antibody binding human iRhom2; HCVD SEQ ID NO 17, LCVD SEQ ID NO 21 (antibody, V domains shown)
VH: B1 VH with D57E
VL: B1 VL
modifications: antibody sequences
B3: 16-B-05: humanized antibody binding human iRhom2; HCVD SEQ ID NO 9, LCVD SEQ ID NO 13 (antibody, V domains shown)
VH: B1 VH with D57E
VL: B1 VL with Q93N
modifications: antibody sequences
B4: 23-B-04: humanized antibody binding human iRhom2; HCVD SEQ ID NO 25, LCVD SEQ ID NO 29 (antibody, V domains shown)
VH: QVTLRESGPALVKPTQTLTLTCTFSGFSLSTFGMGVGWIRQPPGKALEWLAHIWWDDEKYYNSALKSRLTISKDTSKNQVVLTITNMDPVDTATYYCARISNYGSNYWYFNVWGQGTLVTVSS
VL: AIQLTQSPSSLSASVGDRVTITCRASSSVSYMYWYQQKPGKAPKVLIYDTSNLASGVPSRFSGSGSGTDYTLTISSLQPEDFATYYCQQWNAYPLTFGQGTKLEIK
modifications: antibody sequences
B5: 42-B-02: humanized antibody binding human iRhom2; HCVD SEQ ID NO 33, LCVD SEQ ID NO 37 (antibody, V domains shown)
VH: B4 VH with M34R, S101Q, N111D
VL: B4 VL with S28R, V29I, Y33F, A92S
modifications: antibody sequences
B6: 42-B-04: humanized antibody binding human iRhom2; HCVD SEQ ID NO 41, LCVD SEQ ID NO 45 (antibody, V domains shown)
VH: B4 VH with M34R, S101Q, N111D
VL: B4 VL with S28R, V29I, Y33F
modifications: antibody sequences

In the assay the target is T1, mouse iRhom2. The assay is described as follows: FACS mouse cross-reactivity on MEF-DKO-miR2-FL-WT-T7 cells. Particulars: antibody at 3 μg/ml. In kind it is binding. The text has this:
Next, immortalized iRhom1/2−/− DKO MEFs were reconstituted with a tagged form of human iRhom2 to test target recognition of humanized antibodies of the invention. Additionally, iRhom1/2−/− DKO MEFs stably expressing a tagged form of mouse iRhom2 were generated in order to determine cross-reactivity of the humanized antibodies 16-B-03, 16-B-05, 16-B-07, 23-B-04, 42-B-02 and 42-B-04 of the invention with the mouse orthologue of iRhom2.
In brief, on day 1, Phoenix-ECO cells (American Type Culture Collection, USA) were seeded on 6-well tissue culture plates (Greiner, Germany) in standard growth medium at 8×10^5 cells per well and kept overnight at 37° C., 5% CO2. On day 2, the medium was replaced by fresh medium supplemented with chloroquine (Sigma-Aldrich, USA) at a final concentration of 25 μM. Applying the calcium phosphate method, cells were transfected with 2 μg/ml of pMSCV (Clontech, USA) empty vector, pMSCV-hiR2-FL-WT-T7 encoding human iRhom2 full length wild type C-terminally tagged with 3 consecutive copies of the T7 epitope (MASMTGGQQMG) or pMSCV-miR2-FL-WT-T7 encoding mouse iRhom2 full length wild type C-terminally tagged with 3 consecutive copies of the T7 epitope, and were kept at 37° C., 5% CO2. After 7 hours, the transfections were stopped by replacing cell supernatants with standard growth medium lacking chloroquine, and cells were incubated at 37° C., 5% CO2 to allow virus production overnight. In parallel, immortalized iRhom1/2−/− DKO MEFs as target cells for retroviral infection were seeded on 6-well tissue culture plates (Greiner, Germany) in standard growth medium at 1×10^5 cells per well and were also kept overnight at 37° C., 5% CO2. On day 3, the supernatants of Phoenix-ECO cells releasing pMSCV, pMSCV-hiR2-FL-WT-T7 or pMSCV-miR2-FL-WT-T7 ecotrophic virus were collected, filtered with 0.45 μm CA filters, and supplemented with 4 μg/ml of polybrene (Sigma-Aldrich, USA). Upon removal of medium from the immortalized iRhom1/2−/− DKO MEFs, the virus containing supernatants were added to the target cells for 4 hours at 37° C., 5% CO2 for first infection. Simultaneously, Phoenix-ECO cells were re-incubated with fresh medium, which, after another 4 hours, was filtered and used for the second infection of the respective target cell populations, again in the presence of 4 μg/ml of polybrene. Likewise, a third, but overnight infection cycle was performed. On day 4, virus containing cell supernatants were replaced by fresh standard growth medium. From day 5 onwards, cells were grown in the presence of 2 mg/ml of geneticin (G418, Thermo Fisher Scientific, USA) for the selection of immortalized MEF-DKO-EV control cells stably infected with pMSCV empty vector, MEF-DKO-hiR2-FL-WT-T7 cells stably expressing human iRhom2 full length wild type C-terminally tagged with 3 consecutive copies of the T7 epitope, and MEF-DKO-miR2-FL-WT-T7 cells stably expressing mouse iRhom2 full length wild type C-terminally tagged with 3 consecutive copies of the T7 epitope. Upon propagation, cells were stocked for future usage.
In brief, immortalized MEF-DKO-EV control cells, MEF-DKO-hiR2-FL-WT-T7 cells and MEF-DKO-miR2-FL-WT-T7 cells were harvested with 10 mM EDTA in PBS, washed and resuspended in FACS buffer (PBS, 3% FBS, 0.05% sodium azide), and seeded in Nunc U-bottom 96-well plates (Thermo Fisher Scientific, USA) at approximately 3×10^5 cells per well. To pellet cells and remove supernatants, the plates were centrifuged at 1,500 rpm and 4° C. for 3 minutes. For primary staining, cells were resuspended in 100 μl per well of either FACS buffer alone (controls), mouse monoclonal anti-T7 IgG (Merck Millipore, USA) at 3 μg/ml FACS buffer or the humanized antibodies 16-B-03, 16-B-05, 16-B-07, 23-B-04, 42-B-02 and 42-B-04 of the invention also at 3 μg/ml FACS buffer and incubated on ice for 1 hour. Afterwards, plates were centrifuged at 1,500 rpm and 4° C. for 3 minutes and washed twice with 200 μl per well of FACS buffer. […]
In the case of B1, the “binding to mouse iRhom2 on MEF-DKO-miR2-FL-WT-T7 cells (mouse cross-reactivity)” value (“binding to mouse iRhom2” below) is listed as “no significant binding”.
Take B2: the “binding to mouse iRhom2” value was “none of these humanized antibodies of the invention are cross-reactive”.
On to B3, for which the “binding to mouse iRhom2” value is on record as “none of these humanized antibodies of the invention are cross-reactive”.
Take B4: the “binding to mouse iRhom2” value was “none of these humanized antibodies of the invention are cross-reactive”.
Under B5 stands “none of these humanized antibodies of the invention are cross-reactive”; under B6, “none of these humanized antibodies of the invention are cross-reactive”.

(Values after patent US12404345B2, “Humanized antibodies against iRHOM2” (SCIRHOM GMBH, priority 2021, dated 2025).)
